Consider two sequences from paper PMC5499655.

In the data set the target is T1, His6-BldD (Streptomyces venezuelae) (UniProt A0ABZ1NMZ0).
T1 sequence: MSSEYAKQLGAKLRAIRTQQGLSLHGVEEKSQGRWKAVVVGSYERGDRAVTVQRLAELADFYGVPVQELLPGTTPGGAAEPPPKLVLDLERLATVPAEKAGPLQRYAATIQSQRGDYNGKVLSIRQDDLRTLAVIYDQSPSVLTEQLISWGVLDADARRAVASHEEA
Briefly: EMSA. To be noted: binding buffer and pH not stated.

As to “CTCCCAGAGGCAGAGCTTCCATCACGTGCAGTGCGGGACCGTTCACCCGTCGTGGCGACGTGAGGGGTCCTTTGTGCGTCTGAGGAGAATAACGCTTCGTACAGGCAGCGCTACACCCAGTTGCCTAAATCACCGGTTCCG (double strand) [bldN promoter]”, the binding entry is given as “binds”. The same measure for “GCCATGACCTGCTGTGACTTGAGTCACAGAGGCGAGTATTTGCTGACCCTGTGTACCGGGTGCGCAGCTCGCTGTGATTCAGTGGCGGTGACAGTGCAACACGAAGCCGATGAGAACCCTGGAGTTGCTGTCGAGGTCTCG (double strand) [cdgB promoter]”: “binds”.
